Numbered stars: 1 amine (or outer) side, 2 acyl side, 3 side chain; on linkers, the order of the positions; unused ones are H or OH. Bridge positions count the residues as written; N and C are the ends. TRITC = tetramethylrhodamine dye; Cysteamine = C(CS[*:2])N[*:1]; Ahx = NCCCCCC(=O)O
Tests used:
[1] = biological target: DD(E) (soluble protein fragment of fibrin) (Homo sapiens, UniProt P02671+P02675+P02679); details: known value used for the competition assay; read-out: dissociation constant (Kd) of the TRITC-Tn6 probe for DD(E), known value; cited from earlier work
Sequence of DD(E) (soluble protein fragment of fibrin) (P02671 130-216): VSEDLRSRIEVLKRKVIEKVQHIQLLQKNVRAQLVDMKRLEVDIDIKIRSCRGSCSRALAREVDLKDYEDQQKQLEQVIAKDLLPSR
Sequence of DD(E) (soluble protein fragment of fibrin) (P02675 164-491): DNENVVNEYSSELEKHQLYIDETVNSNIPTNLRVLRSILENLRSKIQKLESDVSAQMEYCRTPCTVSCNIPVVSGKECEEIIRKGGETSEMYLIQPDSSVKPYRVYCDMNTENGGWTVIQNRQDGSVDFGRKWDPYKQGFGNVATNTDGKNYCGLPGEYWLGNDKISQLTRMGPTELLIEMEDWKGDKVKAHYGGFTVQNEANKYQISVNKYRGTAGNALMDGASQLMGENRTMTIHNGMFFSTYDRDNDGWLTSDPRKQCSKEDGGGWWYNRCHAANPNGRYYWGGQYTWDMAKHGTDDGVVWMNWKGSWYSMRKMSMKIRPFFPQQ
Sequence of DD(E) (soluble protein fragment of fibrin) (P02679 114-432): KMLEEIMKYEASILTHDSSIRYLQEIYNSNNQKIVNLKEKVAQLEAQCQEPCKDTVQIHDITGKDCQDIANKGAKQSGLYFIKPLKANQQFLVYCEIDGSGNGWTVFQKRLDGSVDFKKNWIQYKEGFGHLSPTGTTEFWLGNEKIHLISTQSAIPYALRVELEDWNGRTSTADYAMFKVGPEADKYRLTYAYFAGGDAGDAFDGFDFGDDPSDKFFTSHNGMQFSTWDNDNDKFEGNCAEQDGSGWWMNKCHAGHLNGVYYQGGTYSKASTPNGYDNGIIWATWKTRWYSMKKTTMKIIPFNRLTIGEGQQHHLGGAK
Sequence of DD(E) (soluble protein fragment of fibrin) (P02671 36-97): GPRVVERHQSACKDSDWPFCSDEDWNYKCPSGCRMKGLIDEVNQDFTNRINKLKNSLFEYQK
Sequence of DD(E) (soluble protein fragment of fibrin) (P02675 45-152): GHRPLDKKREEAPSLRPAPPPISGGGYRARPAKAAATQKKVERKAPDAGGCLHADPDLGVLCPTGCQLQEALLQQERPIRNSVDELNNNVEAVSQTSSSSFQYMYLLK
Sequence of DD(E) (soluble protein fragment of fibrin) (P02679 27-88): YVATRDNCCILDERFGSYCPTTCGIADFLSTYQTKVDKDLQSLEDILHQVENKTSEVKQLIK

PDI [2] = biological target: T1, PDI (Homo sapiens, UniProt P07237); experiment: Real-time fluorescence anisotropy assay of TRITC-Tn6-MDS activation in presence of DD(E); assay type: biochemical; details: only when both PDI and DTT are present simultaneously; 2 μM DD(E)
T1 sequence (P07237 18-508, species assumed): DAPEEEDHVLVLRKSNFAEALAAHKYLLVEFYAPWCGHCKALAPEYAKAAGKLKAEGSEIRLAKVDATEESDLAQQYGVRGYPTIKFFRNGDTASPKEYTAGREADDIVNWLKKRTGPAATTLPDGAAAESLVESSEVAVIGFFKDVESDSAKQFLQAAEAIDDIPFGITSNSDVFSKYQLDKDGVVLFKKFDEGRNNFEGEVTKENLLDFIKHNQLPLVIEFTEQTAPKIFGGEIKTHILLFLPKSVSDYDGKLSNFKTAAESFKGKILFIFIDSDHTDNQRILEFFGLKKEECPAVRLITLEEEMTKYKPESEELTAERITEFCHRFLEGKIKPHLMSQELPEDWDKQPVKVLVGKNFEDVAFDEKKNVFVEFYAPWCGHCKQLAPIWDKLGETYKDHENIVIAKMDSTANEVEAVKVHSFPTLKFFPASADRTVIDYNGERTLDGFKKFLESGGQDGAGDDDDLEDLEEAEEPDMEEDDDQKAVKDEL
Protocol: These experiments were conducted in the same assay buffer as was used for the LC-MS experiment described above.

PDI [3] = biological target: T1, PDI; experiment: LC-MS analysis of conversion of TRITC-Tn6-MDS to cyclized form; assay type: biochemical
Protocol: This mixed disulfide (MDS) probe, denoted as TRITC-Tn6-MDS, was then tested to determine whether it could be recognized as a substrate by PDI. Conversion of the probe from the mixed-disulfide (MDS) form to the cyclized form was followed by LC-MS under three sets of reaction conditions (PDI alone; DTT alone; and PDI+DTT). The assay buffer for these experiments was 50 mM TRIS, 100 mM NaCl, 2 mM CaCl, and 0.1% Triton X-100.

fibrin fragment DD(E) = fibrin fragment DD(E) (Homo sapiens, UniProt P02671+P02675+P02679); experiment: Direct binding to DD(E) by fluorescence anisotropy; details: serial dilution of DD(E)
Sequence of fibrin fragment DD(E) (P02671 130-216): as the sequence (P02671 130-216) above
Sequence of fibrin fragment DD(E) (P02675 164-491): as the sequence (P02675 164-491) above
Sequence of fibrin fragment DD(E) (P02679 114-432): as the sequence (P02679 114-432) above
Sequence of fibrin fragment DD(E) (P02671 36-97): as the sequence (P02671 36-97) above
Sequence of fibrin fragment DD(E) (P02675 45-152): as the sequence (P02675 45-152) above
Sequence of fibrin fragment DD(E) (P02679 27-88): as the sequence (P02679 27-88) above
Protocol: The binding constants of the TRITC-Tn6-MDS probe and its activated cyclic form were then measured with the fibrin fragment DD(E). A serial dilution of the DD(E) protein was prepared and then mixed with the two probes. […] Therefore, the disulfide linkage of this probe can act as a switch for binding.

In the case of “TRITC-Tn6: fluorescent peptide structurally similar to EP-2104R that binds the same site on DD(E) ({TRITC-Ahx}-QWECPYGLCWIQ-NH2; disulfide 4-9 (inferred))”, the Kd [1] is listed as 510 nM.
With “TRITCAha -QWECPYGLCWIQ-NH2 ({TRITC-Ahx}-QWEC(Cysteamine)PYGLC(Cysteamine)WIQ-NH2) [TRITC-Tn6-MDS, linear optical probe; N-terminal tetramethylrhodamine via 6-aminohexanoic acid linker; two cysteines protected as mixed disulfides with cystamine]” the “activation of the probe (cyclization and binding to DD(E))” value (PDI [2]) was “efficiently activated”, the “conversion of mixed-disulfide form to cyclized form” value (PDI [3]; PDI alone) was “does not promote cyclization” and the “conversion of mixed-disulfide form to cyclized form” value (PDI [3]; PDI in the presence of DTT, compared to DTT alone) was “rapid conversion”. The “Kd for DD(E) relative to that of the cyclic form” value (fibrin fragment DD(E)) was “roughly 20 fold”.

— US10471163B2, “Activatable fibrin-binding probes” (priority 2013, dated 2019)
